Results taken from the supplement of paper PMC7877785.
± gives the uncertainty stated by the source.

Experiment: self-splicing fitness, log relative to wild type (ln ratio); higher = more splicing; Tetrahymena group I intron in knt gene, E. coli kanamycin selection, DiMSum; sequences stand for … in CUCUCU…GGAGGGAAAAGUUAUCAGGCAUGCACCUGGUAGCUAGUCUUUAAACCAAUAGAUUGCAUCGGUUUAAAAGGCAAGACCGUCAAAUUGCGGGAAAGGGGUCAACAGCCGUUCAGUACCAAGUCUCAGGGGAAACUUUGAGAUGGCCUUGCAAAGGGUAUGGUAAUAAGCUGACGGACAUGGUCCUAACCACGCAGCCAAGUCCUAAGUCAACAGAUCUUCUGUUGAUAUGGAUGCAGUUCACAGACUAAAUGUCGGUCGGGGAAGAUGUAUUCUUCUCAUAAGAUAUAGUCGGACCUCUCCUUAAUGGGAGCUAGCGGAUGAAGUGAUGCAACACUGGAGCCGCUGGGAACUAAUUUGUAUGCGAAAGUAUAUUGAUUAGUUUUGGAGUACUCGUGGUCG
Summary of the method: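 Library with all eight P1ex-region intron nucleotides randomised, intron inside the knt kanamycin-resistance gene on pET-22b(+), in E. coli BL21(DE3). Cells grew overnight at 37°C or 30°C on LB agar with or without 25 μg/mL kanamycin (plus 100 μg/mL carbenicillin, 50 μM IPTG, 0.2% rhamnose), in six replicate transformations. Pooled colonies were amplicon-sequenced on Illumina HiSeq 2500. DiMSum fitness is the error-weighted combination of wild-type-normalised replicate fold changes, kanamycin versus none.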

In the case of AAGGAGCAAUAUUACGAGCC, the “self-splicing fitness (ln)” value (30 °C) is reported as -0.997 ± 0.17.

For AAGGAGCAAUAUUACGAGCG, the “self-splicing fitness (ln)” value (30 °C) was -2.53 ± 0.2 and the “self-splicing fitness (ln)” value (37 °C) was -2.19 ± 0.49.

With AAGGAGCAAUAUUACGAUCG the “self-splicing fitness (ln)” value (30 °C) was -1.99 ± 0.19 and the “self-splicing fitness (ln)” value (37 °C) was -1.8 ± 0.27.

With AAGGAGCAAUAUUACGCAAU the “self-splicing fitness (ln)” value (30 °C) was -2.67 ± 0.17 and the “self-splicing fitness (ln)” value (37 °C) was -1.71 ± 0.19.

In the case of AAGGAGCAAUAUUACGCAGG, the “self-splicing fitness (ln)” value (30 °C) is reported as -3.65 ± 0.32 and the “self-splicing fitness (ln)” value (37 °C) is reported as -2.22 ± 0.39.

For AAGGAGCAAUAUUACGCCCA, the “self-splicing fitness (ln)” value (30 °C) was -1.88 ± 0.27 and the “self-splicing fitness (ln)” value (37 °C) was -1.46 ± 0.24.

With AAGGAGCAAUAUUACGCGCU the “self-splicing fitness (ln)” value (30 °C) was -3.5 ± 0.44 and the “self-splicing fitness (ln)” value (37 °C) was -1.5 ± 0.4.

For AAGGAGCAAUAUUACGCUCC, the “self-splicing fitness (ln)” value (37 °C) was -1.7 ± 0.47.

For AAGGAGCAAUAUUACGCUGG, the “self-splicing fitness (ln)” value (30 °C) was -2.18 ± 0.24 and the “self-splicing fitness (ln)” value (37 °C) was -2.24 ± 0.31.

With AAGGAGCAAUAUUACGGAAC the “self-splicing fitness (ln)” value (37 °C) was -2.52 ± 0.36.

With AAGGAGCAAUAUUACGGAUC the “self-splicing fitness (ln)” value (30 °C) was -2.64 ± 0.36.

For AAGGAGCAAUAUUACGGCAG, the “self-splicing fitness (ln)” value (30 °C) was -2.86 ± 0.33 and the “self-splicing fitness (ln)” value (37 °C) was -1.75 ± 0.32.

With AAGGAGCAAUAUUACGGUAG the “self-splicing fitness (ln)” value (30 °C) was -3.82 ± 0.29 and the “self-splicing fitness (ln)” value (37 °C) was -2.75 ± 0.26.

For AAGGAGCAAUAUUACGGUGU, the “self-splicing fitness (ln)” value (30 °C) was -3.44 ± 0.24 and the “self-splicing fitness (ln)” value (37 °C) was -1.77 ± 0.19.

For AAGGAGCAAUAUUACGGUUA, the “self-splicing fitness (ln)” value (30 °C) was -2.54 ± 0.34.

In the case of AAGGAGCAAUAUUACGUAAA, the “self-splicing fitness (ln)” value (30 °C) is reported as -2.81 ± 0.32 and the “self-splicing fitness (ln)” value (37 °C) is reported as -0.663 ± 0.24.

With AAGGAGCAAUAUUACGUCUU the “self-splicing fitness (ln)” value (30 °C) was -1.9 ± 0.09 and the “self-splicing fitness (ln)” value (37 °C) was -1.14 ± 0.13.

With AAGGAGCAAUAUUACGUGCU the “self-splicing fitness (ln)” value (37 °C) was -2.92 ± 0.47.

In the case of AAGGAGCAAUAUUACGUUUU, the “self-splicing fitness (ln)” value (30 °C) is reported as -3.02 ± 0.22 and the “self-splicing fitness (ln)” value (37 °C) is reported as -1.94 ± 0.2.

For AAGUAGCAAUAUUACGAAUA, the “self-splicing fitness (ln)” value (30 °C) was -3.24 ± 0.34 and the “self-splicing fitness (ln)” value (37 °C) was -2.29 ± 0.23.

With AAGUAGCAAUAUUACGACAG the “self-splicing fitness (ln)” value (30 °C) was -2.86 ± 0.18 and the “self-splicing fitness (ln)” value (37 °C) was -1.66 ± 0.21.

With AAGUAGCAAUAUUACGACCG the “self-splicing fitness (ln)” value (30 °C) was -1.89 ± 0.086 and the “self-splicing fitness (ln)” value (37 °C) was -1.35 ± 0.12.

For AAGUAGCAAUAUUACGACGA, the “self-splicing fitness (ln)” value (30 °C) was 0.0522 ± 0.098 and the “self-splicing fitness (ln)” value (37 °C) was 0.0374 ± 0.11.

For AAGUAGCAAUAUUACGACUC, the “self-splicing fitness (ln)” value (30 °C) was 0.858 ± 0.25 and the “self-splicing fitness (ln)” value (37 °C) was 0.537 ± 0.24.

For AAGUAGCAAUAUUACGAGAA, the “self-splicing fitness (ln)” value (30 °C) was -2.44 ± 0.22 and the “self-splicing fitness (ln)” value (37 °C) was -2.05 ± 0.44.

For AAGUAGCAAUAUUACGAUCA, the “self-splicing fitness (ln)” value (30 °C) was -0.93 ± 0.11 and the “self-splicing fitness (ln)” value (37 °C) was -0.174 ± 0.11.

With AAGUAGCAAUAUUACGAUUU the “self-splicing fitness (ln)” value (30 °C) was 0.429 ± 0.06 and the “self-splicing fitness (ln)” value (37 °C) was 0.104 ± 0.075.

For AAGUAGCAAUAUUACGCAAA, the “self-splicing fitness (ln)” value (37 °C) was -1.34 ± 0.31.

For AAGUAGCAAUAUUACGCCGU, the “self-splicing fitness (ln)” value (30 °C) was -1.94 ± 0.19 and the “self-splicing fitness (ln)” value (37 °C) was -0.462 ± 0.19.

In the case of AAGUAGCAAUAUUACGCGAA, the “self-splicing fitness (ln)” value (30 °C) is reported as -2.76 ± 0.23 and the “self-splicing fitness (ln)” value (37 °C) is reported as -0.182 ± 0.18.

In the case of AAGUAGCAAUAUUACGCUUC, the “self-splicing fitness (ln)” value (37 °C) is reported as -1.41 ± 0.2.

With AAGUAGCAAUAUUACGGAAA the “self-splicing fitness (ln)” value (30 °C) was -2.49 ± 0.3 and the “self-splicing fitness (ln)” value (37 °C) was -1.84 ± 0.24.

In the case of AAGUAGCAAUAUUACGGAUA, the “self-splicing fitness (ln)” value (30 °C) is reported as -2.1 ± 0.17 and the “self-splicing fitness (ln)” value (37 °C) is reported as -1.66 ± 0.16.

With AAGUAGCAAUAUUACGGCCC the “self-splicing fitness (ln)” value (30 °C) was -0.413 ± 0.17 and the “self-splicing fitness (ln)” value (37 °C) was -1.15 ± 0.26.

For AAGUAGCAAUAUUACGGGGC, the “self-splicing fitness (ln)” value (30 °C) was -3.29 ± 0.3 and the “self-splicing fitness (ln)” value (37 °C) was -3.4 ± 0.26.

In the case of AAGUAGCAAUAUUACGGGGU, the “self-splicing fitness (ln)” value (30 °C) is reported as -3.03 ± 0.15 and the “self-splicing fitness (ln)” value (37 °C) is reported as -2.53 ± 0.15.

For AAGUAGCAAUAUUACGGUCC, the “self-splicing fitness (ln)” value (30 °C) was -1.32 ± 0.17 and the “self-splicing fitness (ln)” value (37 °C) was -0.239 ± 0.14.

In the case of AAGUAGCAAUAUUACGGUCG, the “self-splicing fitness (ln)” value (30 °C) is reported as -2.14 ± 0.13 and the “self-splicing fitness (ln)” value (37 °C) is reported as -1.03 ± 0.12.

With AAGUAGCAAUAUUACGUAGA the “self-splicing fitness (ln)” value (30 °C) was -3.01 ± 0.18 and the “self-splicing fitness (ln)” value (37 °C) was -1.45 ± 0.21.

With AAGUAGCAAUAUUACGUGCC the “self-splicing fitness (ln)” value (30 °C) was -0.879 ± 0.087 and the “self-splicing fitness (ln)” value (37 °C) was -0.766 ± 0.1.

With AAGUAGCAAUAUUACGUUAG the “self-splicing fitness (ln)” value (30 °C) was -3.51 ± 0.23 and the “self-splicing fitness (ln)” value (37 °C) was -3 ± 0.34.

With AAGUAGCAAUAUUACGUUCU the “self-splicing fitness (ln)” value (30 °C) was -0.514 ± 0.062 and the “self-splicing fitness (ln)” value (37 °C) was -0.45 ± 0.09.

For AAGUAGCAAUAUUACGUUGU, the “self-splicing fitness (ln)” value (30 °C) was -2.95 ± 0.1 and the “self-splicing fitness (ln)” value (37 °C) was -2.43 ± 0.13.

In the case of AAUAAGCAAUAUUACGAAGC, the “self-splicing fitness (ln)” value (30 °C) is reported as -3.57 ± 0.43.

With AAUAAGCAAUAUUACGAGCA the “self-splicing fitness (ln)” value (30 °C) was -1.37 ± 0.2 and the “self-splicing fitness (ln)” value (37 °C) was -0.258 ± 0.2.

In the case of AAUAAGCAAUAUUACGAUAG, the “self-splicing fitness (ln)” value (30 °C) is reported as -3.78 ± 0.32 and the “self-splicing fitness (ln)” value (37 °C) is reported as -2.13 ± 0.24.

For AAUAAGCAAUAUUACGAUUU, the “self-splicing fitness (ln)” value (30 °C) was -0.134 ± 0.064 and the “self-splicing fitness (ln)” value (37 °C) was -0.252 ± 0.074.

With AAUAAGCAAUAUUACGCACG the “self-splicing fitness (ln)” value (30 °C) was -1.06 ± 0.11 and the “self-splicing fitness (ln)” value (37 °C) was -0.851 ± 0.14.

With AAUAAGCAAUAUUACGCAUG the “self-splicing fitness (ln)” value (30 °C) was -1.16 ± 0.13 and the “self-splicing fitness (ln)” value (37 °C) was -0.645 ± 0.12.

For AAUAAGCAAUAUUACGCCAU, the “self-splicing fitness (ln)” value (30 °C) was -2.76 ± 0.14 and the “self-splicing fitness (ln)” value (37 °C) was -1.75 ± 0.15.

With AAUAAGCAAUAUUACGCCCU the “self-splicing fitness (ln)” value (30 °C) was -0.352 ± 0.12 and the “self-splicing fitness (ln)” value (37 °C) was 0.525 ± 0.15.

With AAUAAGCAAUAUUACGGAGA the “self-splicing fitness (ln)” value (30 °C) was -2.61 ± 0.3 and the “self-splicing fitness (ln)” value (37 °C) was -1.76 ± 0.36.

For AAUAAGCAAUAUUACGGAUC, the “self-splicing fitness (ln)” value (30 °C) was -0.855 ± 0.087 and the “self-splicing fitness (ln)” value (37 °C) was -0.124 ± 0.14.

In the case of AAUAAGCAAUAUUACGGCCU, the “self-splicing fitness (ln)” value (30 °C) is reported as -0.0966 ± 0.09 and the “self-splicing fitness (ln)” value (37 °C) is reported as -0.0762 ± 0.13.

With AAUAAGCAAUAUUACGGGAG the “self-splicing fitness (ln)” value (30 °C) was -2.91 ± 0.19 and the “self-splicing fitness (ln)” value (37 °C) was -2.14 ± 0.14.

In the case of AAUAAGCAAUAUUACGGGGU, the “self-splicing fitness (ln)” value (30 °C) is reported as -3.91 ± 0.31 and the “self-splicing fitness (ln)” value (37 °C) is reported as -3.11 ± 0.23.

For AAUAAGCAAUAUUACGGUAC, the “self-splicing fitness (ln)” value (30 °C) was -2.68 ± 0.21 and the “self-splicing fitness (ln)” value (37 °C) was -1.79 ± 0.14.

With AAUAAGCAAUAUUACGGUAG the “self-splicing fitness (ln)” value (30 °C) was -3.77 ± 0.24 and the “self-splicing fitness (ln)” value (37 °C) was -1.95 ± 0.21.

In the case of AAUAAGCAAUAUUACGGUCU, the “self-splicing fitness (ln)” value (30 °C) is reported as -0.462 ± 0.055 and the “self-splicing fitness (ln)” value (37 °C) is reported as 0.0374 ± 0.073.

With AAUAAGCAAUAUUACGGUUG the “self-splicing fitness (ln)” value (30 °C) was -2.86 ± 0.12 and the “self-splicing fitness (ln)” value (37 °C) was -1.97 ± 0.14.

For AAUAAGCAAUAUUACGGUUU, the “self-splicing fitness (ln)” value (30 °C) was -0.628 ± 0.064 and the “self-splicing fitness (ln)” value (37 °C) was -0.165 ± 0.092.

For AAUAAGCAAUAUUACGUACA, the “self-splicing fitness (ln)” value (30 °C) was -0.815 ± 0.1 and the “self-splicing fitness (ln)” value (37 °C) was -0.842 ± 0.11.

For AAUAAGCAAUAUUACGUCAG, the “self-splicing fitness (ln)” value (30 °C) was -3.34 ± 0.18 and the “self-splicing fitness (ln)” value (37 °C) was -1.82 ± 0.13.
